Results as given in patent US20200165325A1.

How the values were obtained:
[1] = biological target: HIV-1 Env of strain 0330.v4.c3 (HIV-1)
[2] = biological target: HIV-1 Env of strain 0815.v3.c3 (HIV-1)
[3] = biological target: HIV-1 Env of strain 1054_07_TC4_1499 (HIV-1)
[4] = biological target: HIV-1 Env of strain 211-9 (HIV-1)
[5] = biological target: HIV-1 Env of strain 231965.c01 (HIV-1)
[6] = biological target: HIV-1 Env of strain 231966.c02 (HIV-1)
[7] = biological target: HIV-1 Env of strain 3103.v3.c10 (HIV-1)
[8] = biological target: HIV-1 Env of strain 3301.v1.c24 (HIV-1)
[9] = biological target: HIV-1 Env of strain 3718.v3.c11 (HIV-1)
[10] = biological target: HIV-1 Env of strain 620345.c01 (HIV-1)
[11] = biological target: HIV-1 Env of strain 62357_14_D3_4589 (HIV-1)
[12] = biological target: HIV-1 Env of strain 6540.v4.c1 (HIV-1)
[13] = biological target: HIV-1 Env of strain 703357.C02 (HIV-1)
[14] = biological target: HIV-1 Env of strain 89-F1_2_25 (HIV-1)
[15] = biological target: HIV-1 Env of strain AC10.0.29 (HIV-1)
[16] = biological target: HIV-1 Env of strain C1080.c03 (HIV-1)
[17] = biological target: HIV-1 Env of strain C2101.c01 (HIV-1)
[18] = biological target: HIV-1 Env of strain CAAN5342.A2 (HIV-1)
[19] = biological target: HIV-1 Env of strain CAP210.2.00.E8 (HIV-1)
[20] = biological target: HIV-1 Env of strain CAP45.2.00.G3 (HIV-1)
[21] = biological target: HIV-1 Env of strain CNE17 (HIV-1)
[22] = biological target: HIV-1 Env of strain CNE20 (HIV-1)
[23] = biological target: HIV-1 Env of strain CNE21 (HIV-1)
[24] = biological target: HIV-1 Env of strain CNE30 (HIV-1)
[25] = biological target: HIV-1 Env of strain CNE53 (HIV-1)
[26] = biological target: HIV-1 Env of strain CNE58 (HIV-1)
[27] = biological target: HIV-1 Env of strain Ce0393_C3 (HIV-1)
[28] = biological target: HIV-1 Env of strain Ce0682_E4 (HIV-1)
[29] = biological target: HIV-1 Env of strain Ce1176_A3 (HIV-1)
[30] = biological target: HIV-1 Env of strain Ce2010_F5 (HIV-1)
[31] = biological target: HIV-1 Env of strain Ce703010054_2A2 (HIV-1)
[32] = biological target: HIV-1 Env of strain P0402_c2_11 (HIV-1)
[33] = biological target: HIV-1 Env of strain P1981_C5_3 (HIV-1)
[34] = biological target: HIV-1 Env of strain Q23.17 (HIV-1)
[35] = biological target: HIV-1 Env of strain Q259.d2.17 (HIV-1)
[36] = biological target: HIV-1 Env of strain Q461.e2 (HIV-1)
[37] = biological target: HIV-1 Env of strain Q769.d22 (HIV-1)
[38] = biological target: HIV-1 Env of strain QH0692.42 (HIV-1)
[39] = biological target: HIV-1 Env of strain R1166.c01 (HIV-1)
[40] = biological target: HIV-1 Env of strain REJO4541.67 (HIV-1)
[41] = biological target: HIV-1 Env of strain SC422661.8 (HIV-1)
[42] = biological target: HIV-1 Env of strain T250-4 (HIV-1)
[43] = biological target: HIV-1 Env of strain T257-31 (HIV-1)
[44] = biological target: HIV-1 Env of strain T278-50 (HIV-1)
[45] = biological target: HIV-1 Env of strain THRO4156.18 (HIV-1)
[46] = biological target: HIV-1 Env of strain TRJO4551.58 (HIV-1)
[47] = biological target: HIV-1 Env of strain TRO.11 (HIV-1)
[48] = biological target: HIV-1 Env of strain WEAU_d15_410_787 (HIV-1)
[49] = biological target: HIV-1 Env of strain WITO4160.33 (HIV-1)
[50] = biological target: HIV-1 Env of strain X1254_c3 (HIV-1)
[51] = biological target: HIV-1 Env of strain ZM109F.PB4 (HIV-1)
[52] = biological target: HIV-1 Env of strain ZM135M.PL10a (HIV-1)
[53] = biological target: HIV-1 Env of strain ZM197M.PB7 (HIV-1)
[54] = biological target: HIV-1 Env of strain ZM214M.PL15 (HIV-1)
[55] = biological target: HIV-1 Env of strain ZM233M.PB6 (HIV-1)
[56] = biological target: HIV-1 Env of strain ZM247v1(Rev-) (HIV-1)
[57] = biological target: HIV-1 Env of strain ZM249M.PL1 (HIV-1)

Q: Which In vitro neutralization IC80 [1] does the source give for NIH45-46 IgG (wild type) (antibody) here?
A: Its In vitro neutralization IC80 is 0.3 µg/mL.

Q: What about the In vitro neutralization IC80 [2] of the same substance?
A: Its In vitro neutralization IC80 is 0.052 µg/mL.

Q: What about the In vitro neutralization IC80 [3] of the same substance?
A: The In vitro neutralization IC80 was 0.404 µg/mL.

Q: What about the In vitro neutralization IC80 [4] of the same substance?
A: The In vitro neutralization IC80 was greater than 50 µg/mL.

Q: What about the In vitro neutralization IC80 [5] of the same substance?
A: Its In vitro neutralization IC80 is 0.126 µg/mL.

Q: What about the In vitro neutralization IC80 [6] of the same substance?
A: Its In vitro neutralization IC80 is 9.64 µg/mL.

Q: What about the In vitro neutralization IC80 [7] of the same substance?
A: Its In vitro neutralization IC80 is 6.15 µg/mL.

Q: And the In vitro neutralization IC80 [8]?
A: The In vitro neutralization IC80 was 0.033 µg/mL.

Q: And the In vitro neutralization IC80 [9]?
A: Its In vitro neutralization IC80 is greater than 50 µg/mL.

Q: And the In vitro neutralization IC80 [10]?
A: The In vitro neutralization IC80 was greater than 50 µg/mL.

Q: And the In vitro neutralization IC80 [11]?
A: Its In vitro neutralization IC80 is 0.19 µg/mL.

Q: And the In vitro neutralization IC80 [12]?
A: Its In vitro neutralization IC80 is greater than 50 µg/mL.

Q: And the In vitro neutralization IC80 [13]?
A: Its In vitro neutralization IC80 is greater than 50 µg/mL.

Q: What about the In vitro neutralization IC80 [14] of the same substance?
A: Its In vitro neutralization IC80 is greater than 50 µg/mL.

Q: What about the In vitro neutralization IC80 [15] of the same substance?
A: The In vitro neutralization IC80 was 1.93 µg/mL.

Q: What about the In vitro neutralization IC80 [16] of the same substance?
A: Its In vitro neutralization IC80 is 11.6 µg/mL.

Q: What about the In vitro neutralization IC80 [17] of the same substance?
A: Its In vitro neutralization IC80 is 31.4 µg/mL.

Q: What about the In vitro neutralization IC80 [18] of the same substance?
A: Its In vitro neutralization IC80 is 0.4 µg/mL.

Q: What about the In vitro neutralization IC80 [19] of the same substance?
A: The In vitro neutralization IC80 was greater than 50 µg/mL.

Q: What about the In vitro neutralization IC80 [20] of the same substance?
A: The In vitro neutralization IC80 was greater than 50 µg/mL.

Q: And the In vitro neutralization IC80 [21]?
A: The In vitro neutralization IC80 was 0.734 µg/mL.

Q: And the In vitro neutralization IC80 [22]?
A: The In vitro neutralization IC80 was greater than 50 µg/mL.

Q: And the In vitro neutralization IC80 [23]?
A: The In vitro neutralization IC80 was 38.1 µg/mL.

Q: What about the In vitro neutralization IC80 [24] of the same substance?
A: Its In vitro neutralization IC80 is 1.07 µg/mL.

Q: And the In vitro neutralization IC80 [25]?
A: The In vitro neutralization IC80 was 0.039 µg/mL.

Q: And the In vitro neutralization IC80 [26]?
A: The In vitro neutralization IC80 was 2.08 µg/mL.

Q: And the In vitro neutralization IC80 [27]?
A: Its In vitro neutralization IC80 is 0.936 µg/mL.

Q: What about the In vitro neutralization IC80 [28] of the same substance?
A: Its In vitro neutralization IC80 is 0.155 µg/mL.

Q: And the In vitro neutralization IC80 [29]?
A: Its In vitro neutralization IC80 is 3.17 µg/mL.

Q: What about the In vitro neutralization IC80 [30] of the same substance?
A: Its In vitro neutralization IC80 is 0.357 µg/mL.

Q: And the In vitro neutralization IC80 [31]?
A: Its In vitro neutralization IC80 is 0.538 µg/mL.

Q: What about the In vitro neutralization IC80 [32] of the same substance?
A: Its In vitro neutralization IC80 is 0.214 µg/mL.

Q: What about the In vitro neutralization IC80 [33] of the same substance?
A: The In vitro neutralization IC80 was 0.24 µg/mL.

Q: What about the In vitro neutralization IC80 [34] of the same substance?
A: Its In vitro neutralization IC80 is 0.5 µg/mL.

Q: And the In vitro neutralization IC80 [35]?
A: Its In vitro neutralization IC80 is 0.154 µg/mL.

Q: What about the In vitro neutralization IC80 [36] of the same substance?
A: The In vitro neutralization IC80 was 0.291 µg/mL.

Q: What about the In vitro neutralization IC80 [37] of the same substance?
A: The In vitro neutralization IC80 was 0.033 µg/mL.

Q: What about the In vitro neutralization IC80 [38] of the same substance?
A: Its In vitro neutralization IC80 is 1.71 µg/mL.

Q: What about the In vitro neutralization IC80 [39] of the same substance?
A: The In vitro neutralization IC80 was 1.21 µg/mL.

Q: And the In vitro neutralization IC80 [40]?
A: Its In vitro neutralization IC80 is 0.035 µg/mL.

Q: And the In vitro neutralization IC80 [41]?
A: The In vitro neutralization IC80 was 0.13 µg/mL.

Q: What about the In vitro neutralization IC80 [42] of the same substance?
A: The In vitro neutralization IC80 was greater than 50 µg/mL.

Q: What about the In vitro neutralization IC80 [43] of the same substance?
A: The In vitro neutralization IC80 was 1.38 µg/mL.

Q: What about the In vitro neutralization IC80 [44] of the same substance?
A: Its In vitro neutralization IC80 is greater than 50 µg/mL.

Q: And the In vitro neutralization IC80 [45]?
A: Its In vitro neutralization IC80 is 8.22 µg/mL.

Q: What about the In vitro neutralization IC80 [46] of the same substance?
A: Its In vitro neutralization IC80 is 0.13 µg/mL.

Q: And the In vitro neutralization IC80 [47]?
A: Its In vitro neutralization IC80 is 7.49 µg/mL.

Q: What about the In vitro neutralization IC80 [48] of the same substance?
A: The In vitro neutralization IC80 was 0.015 µg/mL.

Q: What about the In vitro neutralization IC80 [49] of the same substance?
A: The In vitro neutralization IC80 was 0.26 µg/mL.

Q: And the In vitro neutralization IC80 [50]?
A: Its In vitro neutralization IC80 is 0.107 µg/mL.

Q: What about the In vitro neutralization IC80 [51] of the same substance?
A: Its In vitro neutralization IC80 is 0.437 µg/mL.

Q: What about the In vitro neutralization IC80 [52] of the same substance?
A: The In vitro neutralization IC80 was 2.79 µg/mL.

Q: And the In vitro neutralization IC80 [53]?
A: The In vitro neutralization IC80 was 0.55 µg/mL.

Q: And the In vitro neutralization IC80 [54]?
A: Its In vitro neutralization IC80 is 0.59 µg/mL.

Q: What about the In vitro neutralization IC80 [55] of the same substance?
A: Its In vitro neutralization IC80 is 14.2 µg/mL.

Q: And the In vitro neutralization IC80 [56]?
A: Its In vitro neutralization IC80 is 24.5 µg/mL.

Q: And the In vitro neutralization IC80 [57]?
A: Its In vitro neutralization IC80 is 0.053 µg/mL.
